How the values were obtained:
[1] = biological target: T1, Trunc AREG (fragment that remains cell-bound after cleavage by ADAM17) (Homo sapiens, UniProt P15514); assay: Immunoblot of TRF-conjugated AREG peptides, cleaved mimic; assay type: binding; settings: 1 μg/mL antibody, 200 ng TRF-conjugated peptide
T1 construct: host or cells: synthetic peptide conjugated to transferrin
Procedure: (§1) Monomethyl auristatin E (MMAE) conjugated 1A3 antibody (1A3-VC-PAB-MMAE) was prepared using a kit (CM11409) from CellMosaic Inc. (Woburn, MA, USA) following the manufacturer's instructions. Maleimide-activated valine-citrulline p-aminobenzylcarbamate (VCPAB) MMAE was coupled directly to the antibody after reduction through alkylation.^13 The specificity of 1A3 and 1A3-VC-PAB-MMAE to peptides representing human cleaved-AREG was confirmed by immunoblotting. Briefly, transferrin (TRF) conjugated peptides representing cleaved and uncleaved AREG (200 ng) were electrophoresed on SDS-PAGE gels, transferred to PVDF membrane and probed with 1 μg/mL of 1A3 and 1A3-VC-PAB-MMAE. Horseradish peroxidase-conjugated goat anti-rabbit IgG was used. Antibody binding was detected with enhanced chemiluminescence (ECL; Amersham, Arlington Heights, IL, USA). Furthermore, the characterization and purity of 1A3-VC-PAB-MMAE were analyzed using hydrophobic interaction chromatography (HIC) and size-exclusion chromatography (Cell Mosaic).

[2] = biological target: T2, FL AREG (peptide representing uncleaved AREG) (Homo sapiens, UniProt P15514); assay: Immunoblot of TRF-conjugated AREG peptides, intact cleavage site; assay type: binding; settings: 1 μg/mL antibody, 200 ng TRF-conjugated peptide
T2 construct: a peptide spanning this region (SMKTHSMIDSSLSKIAC); host or cells: synthetic peptide conjugated to transferrin
Procedure: as §1

[3] = tested on: MCF7-F xenografts; assay: Orthotopic MCF7-F endocrine-resistant xenograft in NSG mice; assay type: in vivo, mouse
Source text: In Vivo Antitumor Activity Studies: The animal experiments were approved by the Institutional Animal Care and Use Committee of University of Wisconsin La Crosse (La Crosse, Wisconsin, USA). Four-week-old female NOD.Cg-Prkdc^scid II2rg^tm1Wjl/SzJ mice (NSG; The Jackson Laboratory) were acclimated for 1 week before the experiments. For MCF7 breast cancer xenograft model, the mice were implanted subcutaneously with 0.72-mg 17β-estradiol 90-day release tablets (Innovative Research of America) 3 days prior to cell injection. […] Firefly luciferase expressing MCF7 and MCF7-F cells (2×10^6 cells in a 1:1 mixture of serum-free DMEM and Matrigel) were injected orthotopically into the fourth inguinal mammary fat pad of each mouse. Once the tumors were well established, each cell line cohort was divided into three groups (n=5). Mean tumor volume at the start of treatment was 111 mm^3 for the MCF7 cohorts and 119 mm^3 for the MCF7-F cohorts. The mice were treated by intraperitoneal injection every 4 days for a total of six doses with unconjugated or MMAE conjugated anti-cleaved-AREG 1A3 antibody (5 mg/kg), or vehicle control (PBS). Tumor volumes were calculated from caliper data by using the formula: Volume (mm^3)=(Length×Width^2)/2. Mice were imaged weekly with the in vivo FX PRO imaging system (Carestream Molecular Imaging, Woodbridge, CA, USA) after injecting luciferin (150 mg/kg body weight). Tumor volume and body weight were monitored once a week. Statistical Analysis:
To test in vivo efficacy of 1A3-MMAE, human breast cancer cell lines expressing luciferase were injected orthotopically into NSG mice (one tumor in each inguinal mammary gland). Once the average tumor size reached approximately 100-125 mm^3, mice were randomized to one of three treatment groups: PBS, 1A3 (5 mg/kg) or 1A3-MMAE (5 mg/kg). Mice received intraperitoneal injections every 4 days for six total injections and were monitored for tumor progression or regression. Similar experiments were performed with MCF7 (FIGS. 5A, 5B, and 5C, left panels) and MCF7-F (FIGS. 5A, 5B, and 5C, right panels) xenografts.

[4] = biological target: T3, cleaved Amphiregulin (Homo sapiens, UniProt P15514); assay: Immunohistochemistry on multiple organ carcinoma tissue microarrays
T3 construct: tissue BioCoreUSA; host or cells: multiple organ carcinoma tissue microarrays (ten tumour types)
T3 sequence (P15514 188-252): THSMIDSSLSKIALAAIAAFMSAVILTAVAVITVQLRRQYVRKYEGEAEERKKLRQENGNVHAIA
Procedure: Two multiple organ carcinoma tissue microarrays were purchased from BioCoreUSA (Philadelphia, PA, USA). The slides were deparaffinized in xylene and rehydrated by serial incubations in graded ethanol and then in water in a Histo-Tek® SL Slide Stainer (Sakura Finetek USA, Inc., Torrance, CA, USA). Antigen retrieval was performed in a steamer by boiling slides in a container of citrate buffer (pH 6.0) for 20 min which was then removed for 15 minutes of cooling on the benchtop. Slides were washed in 1× Wash buffer (Dako Agilent, Santa Clara, CA, USA) and endogenous peroxidase was quenched by incubating with Dako Dual Endogenous Enzyme Block for 10 minutes. Slides were washed in 1× Wash buffer, blocked (5% rabbit/10% goat serum in PBS), and immunostained with goat anti-AREG antibody (15 μg/mL; AF262, R&D Systems) or rabbit anti-cleaved AREG 1A3 antibody (10 μg/mL) overnight at 4° C. Slides were washed four times in 1× Wash buffer, followed by incubation for 45 minutes at room temperature in 1:100 dilution of rabbit anti-goat immunoglobulins/HRP or ready-to-use goat antirabbit HRP labelled polymer (Dako). […] The staining intensity was assessed semi-quantitatively using a four-point scale (Negative=0, Low=1, Medium=2, High=3) by two investigators working independently on blinded samples. […]

B1: 1A3: Rabbit monoclonal IgG specific to cleaved AREG; VH SEQ ID NO: 3, VL SEQ ID NO: 4 (antibody, V domains shown)
VH: QSVKESEGRLVTPGTPLRLTCTVAGYSLSRYHMCWVRQAPGKGLEWIGMIGGSGRTDYASWAKGRFTISKTSTTVDLKITSPTTEDTATYFCSTVYTDSDGDFWGPGTLVTVSS
VL: AELDMTQTPSSKSVPVGGTVTINCQASESVYSNDRLAWFQQKPGQPPKLLIYYASTLASGVPSRFKGSGSGTQFTLTISDLECADAATYYCQSCYDMSSYGVAFGGGTELEIL
modifications: 1A3 antibody, Heavy chain; 1A3 antibody, Light chain
recognition of truncated AREG peptide by immunoblot [1]: specifically recognized | reaction with peptide representing uncleaved AREG by immunoblot [2]: did not react | longitudinal luciferase imaging of xenografts ([3]; 5 mg/kg): exhibited tumor growth | tumor volume response by caliper measurements ([3]; 5 mg/kg i.p. every 4 days, six doses): continued, sometimes rapid increases in tumor volume | neoplastic cells negative for immunostaining ([4]; 370 evaluable cores, ten tumor types): No neoplastic cells were negative | tumors stained in the highest score for cleaved Amphiregulin ([4]; breast, prostate, liver and lung tumors): At least 50%

Source: patent publication US12043671B2, “Antibodies targeting an amphiregulin-derived cell surface neo-epitope” (Gundersen Lutheran Medical Foundation, Inc., priority 2021, dated 2024)
